The values that follow come from patent publication US20150376260A1.

The target of assay [1] is CD80 (B7.1), human, on lymphatic cancer cell lines (human) (UniProt P33681). As to the kind of experiment: cell-based or functional assay.
For assay [2], the target named is CD86 (B7.2), human, on lymphatic cancer cell lines (human) (UniProt P42081). Kind of assay: cell-based or functional assay.
Chain of UniProt P42081 (P42081 24-329): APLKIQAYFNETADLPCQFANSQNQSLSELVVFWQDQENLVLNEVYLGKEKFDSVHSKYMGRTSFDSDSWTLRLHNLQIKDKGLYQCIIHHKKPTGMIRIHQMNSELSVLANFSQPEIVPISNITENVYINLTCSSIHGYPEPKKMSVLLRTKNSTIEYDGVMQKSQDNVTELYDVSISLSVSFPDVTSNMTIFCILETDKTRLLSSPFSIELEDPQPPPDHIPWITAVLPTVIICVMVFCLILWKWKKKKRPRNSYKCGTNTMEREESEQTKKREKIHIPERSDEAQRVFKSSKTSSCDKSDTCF

Chain of UniProt P33681 (P33681 35-288): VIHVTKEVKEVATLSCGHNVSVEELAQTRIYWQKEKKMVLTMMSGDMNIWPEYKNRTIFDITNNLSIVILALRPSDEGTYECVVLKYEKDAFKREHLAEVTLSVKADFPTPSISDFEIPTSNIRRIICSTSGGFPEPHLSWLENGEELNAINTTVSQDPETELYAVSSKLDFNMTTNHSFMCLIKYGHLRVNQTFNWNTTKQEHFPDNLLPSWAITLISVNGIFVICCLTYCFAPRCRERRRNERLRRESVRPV

Take CTLA4-FasL fusion protein: the cancer killing activity (in-vitro bioassay, MTS cell viability) on lymphatic cancer cells in assay [1] and in assay [2] was 0.02 nM each time.
